Data from patent publication US9879094B2, “Nucleic acid molecules encoding for BACE1 antibodies” (Genentech, Inc., priority 2010, dated 2018).
Where “and” joins values, the source holds several entries; their conditions need not be identical. Identical values can stand only once.

Key:
Aβ1-40 in wild-type mice = test: Wild-type mice, single IV dose, Aβ1-40 levels; format: in vivo, mouse; details: 50 mg/kg single IV
Experimental: The ability of anti-BACE1 antibodies YW412.8.31 to modulate amyloidogenic processing was also assessed in wild-type mice. Briefly, experiments were performed as described above. A single dose of control IgG antibody or YW412.8.31 anti-BACE1 antibody (50 mg/kg) was delivered systemically by intravenous (IV) injection to wild-type mice. After 24 or 48 hours, plasma and brain samples were harvested and Aβ1-40 levels were analyzed. The concentrations of total mouse Aβ1-40 in plasma and brain were determined using a sandwich ELISA following similar procedures described below for measuring total anti-BACE1 antibody concentrations. Briefly, rabbit polyclonal antibody specific for the C terminus of Aβ1-40 (Millipore, Bedford, Mass.) was coated onto plates, and biotinylated anti-mouse Aβ monoclonal antibody M3.2 (Covance, Dedham, Mass.) was used for detection. The assay had lower limit of quantification values of 1.96 pg/ml in plasma and 39.1 pg/g in brain. As is shown in FIG. 16, panel B, Plasma Aβ1-40 was reduced by 35% and cortical Aβ1-40 was reduced by 20%.

human BACE1 ECD = biological target: T1, human BACE1 ECD (Homo sapiens, UniProt P56817); test: BIAcore SPR binding kinetics, human BACE1
T1 construct: human BACE1 ECD or murine BACE1 ECD (amino acids 1-457) was injected in PBT buffer
Experimental: The binding kinetics of YW412.8.31 was assessed. Briefly, binding affinities of anti-BACE1 IgGs were measured by surface plasmon resonance (SPR) using a BIAcore™-3000 instrument. YW412.8.31 anti-BACE1 human IgG was captured by mouse anti-human Fc antibody (GE Healthcare, cat# BR-1008-39) coated on CM5 biosensor chips to achieve approximately 100 response units (RU). For kinetics measurements, two-fold serial dilutions (0.98 nM to 125 nM) of human BACE1 ECD or murine BACE1 ECD (amino acids 1-457) was injected in PBT buffer (PBS with 0.05% Tween 20) at 25° C. with a flow rate of 30 μl/min. Association rates (kon) and dissociation rates (koff) were calculated using a simple one-to-one Langmuir binding model (BIAcore™ Evaluation Software version 3.2). The equilibrium dissociation constant (KD) was calculated as the ratio koff/kon.

[1] = tested on: Aβ1-40 in Cynomolgus monkeys; test: Cynomolgus monkeys, single IV dose, Aβ1-40 in plasma and CSF; format: in vivo, Cynomolgus monkey; details: 30 mg/kg IV
Experimental: Cynomolgus monkeys were dosed with control IgG or YW412.8.31 anti-BACE1 antibody (30 mg/kg) by IV delivery. Plasma and CSF were sampled up to 7 days prior to dosing to set mean baseline Aβ1-40 levels in each in individual animal, and then at various times after dosing. Total anti-BACE1 or control antibody concentrations in monkey serum and CSF samples were measured using monkey-adsorbed goat anti-human IgG polyclonal antibody (Bethyl, Montgomery, Tex.) as both coat and detection (FIG. 20). Free anti-BACE1 antibody concentrations in monkeys were determined using BACE1 ECD as coat and the monkey-adsorbed goat anti-human IgG antibody (Bethyl) for detection.
Aβ1-40 levels in plasma and CSF from Cynomolgus monkeys tested was also determined. Briefly, the concentrations of total cyno Aβ1-40 in plasma were determined using MSD MA6000 Human (6E10) Abeta Kit (Cat#K111BVE-2, Meso Scale Diagnostics) according to the Manufacturer's instructions. The capture antibody, specific for the C terminus of Aβ1-40, was pre-coated on the plates, and Sulfo-Tag anti-Aβ monoclonal antibody 6E10 was used for detection. The assay had lower limit of quantification values of 49.4 pg/ml in plasma. The concentrations of total cyno Aβ1-40 in CSF were determined using a sandwich ELISA. […]

[2] = tested on: E16.5 cortical neurons and E16.5 hippocampal neurons; test: Aβ40 production in cortical and hippocampal neurons; format: cell-based, mouse; details: 24 hours
Experimental: Similar studies were also performed in dorsal root ganglia, cortical neurons and hippocampal neurons isolated from mice. Briefly, dissociated neuronal cultures were prepared from E13.5 dorsal root ganglia (DRG), E16.5 cortical neurons and E16.5 hippocampal neurons. Neurons were grown for five days in vitro. Fresh media containing YW412.8.31 anti-BACE antibody or control IgG1 was incubated with the neurons for 24 hours. Media was harvested and assayed for the presence of Aβ40 using the MSD® Rodent/Human (4G8) A1340 Ultrasensitive kit according to the Manufacturer's instructions. Aβ40 values were normalized for cell viability, as determined using the CellTiter-Glo Luminescent Cell Viability Assay (Promega). The experiment was performed at least three times, and each point was repeated in duplicate. Data was plotted using a four-parameter non-linear regression curve-fitting program (Kaleidagraph, Synergy Software).

[3] = tested on: Aβ1-40 and Aβ1-42 in hAPP transgenic mice; test: hAPP transgenic mice, continuous ICV infusion, Aβ levels; format: in vivo, mouse; details: ICV infusion 7 days
Experimental: Similar experiments were also performed in which YW412.8.31 anti-BACE1 antibody was delivered systemically or directly into hAPP transgenic mice brains by continuous ICV infusion. For ICV delivery, antibody was delivered continuously for 7 days via an Alzet osmotic minipump (model 2001) implanted unilaterally. The amount of YW412.8.31 antibody delivered was 0.041 mg/day (low dose) or 0.41 mg/day (high dose); 0.33 mg/day Control IgG was delivered to the control group. At euthanasia, plasma, cortex, and hippocampus were harvested and analyzed for levels of soluble Aβ1-40 and Aβ1-42 by ELISA (The Genetics Company) following manufacturer's instructions.

T1 sequence (P56817 22-457): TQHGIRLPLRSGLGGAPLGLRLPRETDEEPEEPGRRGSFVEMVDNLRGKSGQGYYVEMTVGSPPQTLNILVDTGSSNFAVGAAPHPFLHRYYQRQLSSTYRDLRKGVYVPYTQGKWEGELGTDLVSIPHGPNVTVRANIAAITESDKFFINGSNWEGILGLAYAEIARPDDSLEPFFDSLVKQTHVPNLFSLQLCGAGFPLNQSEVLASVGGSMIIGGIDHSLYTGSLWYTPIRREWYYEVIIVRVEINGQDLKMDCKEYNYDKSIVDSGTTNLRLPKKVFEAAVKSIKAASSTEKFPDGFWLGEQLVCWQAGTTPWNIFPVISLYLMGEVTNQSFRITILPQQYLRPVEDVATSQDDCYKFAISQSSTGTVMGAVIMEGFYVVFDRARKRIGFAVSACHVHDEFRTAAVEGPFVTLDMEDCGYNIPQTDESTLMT

B1: YW412.8.31: affinity matured form of YW412.8 anti-BACE1 antibody (antibody, V domains shown)
VH: EVQLVESGGGLVQPGGSLRLSCAASGFTFLGYGIHWVRQAPGKGLEWVGWISPAGGSTDYADSVKGRFTISADTSKNTAYLQMNSLRAEDTAVYYCARGPFSPWVMDYWGQGTLVTVSS
VL: DIQMTQSPSSLSASVGDRVTITCRASQDVSTAVAWYQQKPGKAPKLLIYSASFLYSGVPSRFSGSGSGTDFTLTISSLQPEDFATYYCQQFPTYLPTFGQGTKVEIK
reduction of cortical Aβ1-40 (Aβ1-40 in wild-type mice; 24 or 48 hours): 20% | reduction of plasma Aβ1-40 (Aβ1-40 in wild-type mice; at 24 hr): 35% | Binding to BACE1 (human BACE1 ECD; at both pH 7.0 and 5.0): confirmed | KON (human BACE1 ECD; human BACE1, IgG captured, pH 7.0, 25° C.): 1.1 × 10^5 M^−1S^−1 and 1.05 × 10^5 M^−1S^−1 | reduction of CSF Aβ1-40 ([1]; 1 and 3 days following dosing): up to 50% | reduction of plasma Aβ1-40 from baseline ([1]; sustained over 7 days): ~50% | IC50 [2]: ~2.5 nM | Aβ reduction following ICV infusion [3]: 15-23% | reduction of Aβ1-40 and Aβ1-42 in cortex ([3]; both doses): 15-23% | reduction of Aβ1-40 and Aβ1-42 in hippocampus ([3]; both doses): 15-20%
